# Results from US20250250357A1 (NANJING ZAIMING PHARMACEUTICAL, published 2025).
# Substitutions are numbered along the chain they refer to.
# B1: S009-F1.56.1 (antibody, human IgG1, kappa, V domains shown)
# VH: EVQLQQSGAEVVKPGASVKLSCTASGFNIRHTYMHWVKQRPEQGLEWIGRIDPANGNTEYDPKFQGKATITADTSSNTAYLQLSSLTSEDTAVYYCARDGWYIDVWGAGTTVTVSS
# VL: DIVMSQSPSSLAVSVGEKVTMSCKSSQSLLYSNNQKNYLAWYQQKPGQSPKLLIYWASTRESGVPDRFTGSGSGTDFTLTISSVKAEDLAVYYCQRYYSYPWTFGGGTKLEIKR
# notes: Human-murine chimeric antibody, human IgG1/kappa constant regions
# B2: S009-F1.57.1 (antibody, human IgG1, kappa, V domains shown)
# VH: EAQLQQSGAVFVKPGASVKLSCTASGFSSKDIFLHWVKQRPEQGLEWIGRIDPASDNTIYDPKFQDRATITSDRSSNTAYLQFSSLTSEDTAVYFCLYFDFWGQGTTLTVSS
# VL: DIVMTQATPSISVTPGESVSISCRSSESLLHSNGNTYLYWFLQRPGQSPQLLIYRMSNLASGVPDRFSVSGSGTAFTLRISRVEAEDVGVYYCMQHLEYPLTFGAGTKLELKR
# notes: as for B1
# B3: S009-F1.59.1 (antibody, human IgG1, kappa, V domains shown)
# VH: EVKLEGSGGGLVQPGGSMMLSCVATGFTFSSYWMNWVRQSPDRGLEWVAEIRLKSNGFAAFYAESVKGRFTISRDDSKSSVYLQMNNLRTEDTGIYYCTYFVHWGQGILVTVSE
# VL: DIVLTQSPTSLAVSLGQRATISCRTSESVEYFGTILIQWYQQKPGQPPKLLIFGASNVESGVPARFSGSGSGTDFSLNIHPVEEEDIAMYFCQQNRKVPYTFGGGTTLELKR
# notes: as for B1
# B4: S009-F1.62.9 (antibody, human IgG1, kappa, V domains shown)
# VH: EVQLQQSGADLVKPGASVKLSCTVFGLNFKDTFMHWVRQRPEQGLEWIGRIDPANDNSIYGPKFQDKATITADTSSNTAYLHLSSLTSEDTAVYYCLYFDNWGHGTTLTVSS
# VL: B2 VL with T8A, P9S, I11E, S12P, S26D, E27K, N35H, T36N, Q50H, V69G
# notes: as for B1
# B5: S009-F1.2.12 (antibody, human IgG1, kappa, V domains shown)
# VH: QVQLKQTGPGLVQPSQSLSITCTVSGFSLTNYAVHWVRQSPGKGLEWLGVIWSGGATDYNTVFISRLSISKDNSKSQVFFKVNSLQVDDTAIYYCARTGSGYAMDYWGQGTSVTVSS
# VL: DIVLTQSPATLSVTPGDRVSLSCRTSHNVNTYLHWYQQKSHESPRLLIKYASQSISEIPSRFSGSGSGTNFTLSINSVETEDFGMYFCHQTNRWPLTFGAGTKLELKR
# B6: S009-F1.7.14 (antibody, human IgG1, kappa)
# heavy: not shown
# light: QIVLTQSPAIMSASPGEKVTISCSASSSVSYMYWYQQKPGSSPKPWISRTSNLASGVPARFSGSGSGTSYSLTISSMEAEDAATYYCQQYHSYPPTLGAGTKLELKRTVAAPSVFIFPPSDEQLKSGTASVVCLLNNFYPREAKVQWKVDNALQSGNSQESVTEQDSKDSTYSLSSTLTLSKADYEKHKVYACEVTHQGLSSPVTKSFNRGEC
# notes: as for B1
# Legend:
# [1] = target: T1, human MSLN-R2-his protein (human, UniProt Q13421 391-486); experiment: ELISA, coated MSLN-R2;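 also: chimeric antibodies bound to blocked coated plates for 2 h at 37 °C, TMB colour development stopped with HCl, with a negative control antibody for comparison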
# T1 construct: Region 2 of human MSLN, His-tagged; also called human MSLN-R2 protein; hMSLN-R2-his; not shown: His tag
# T1 sequence (Q13421 other isoform, or with tags, fused parts or gaps): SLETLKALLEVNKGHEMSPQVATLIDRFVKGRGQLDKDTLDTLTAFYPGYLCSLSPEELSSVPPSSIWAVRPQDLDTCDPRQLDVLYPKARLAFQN
# [2] = target: T2, human MSLN-R3-his protein (human, UniProt Q13421 487-598); experiment: ELISA, coated MSLN-R3
# T2 construct: Region 3 of human MSLN, His-tagged; also called human MSLN-R3 protein; hMSLN-R3-his; not shown: His tag
# T2 sequence (Q13421 495-606): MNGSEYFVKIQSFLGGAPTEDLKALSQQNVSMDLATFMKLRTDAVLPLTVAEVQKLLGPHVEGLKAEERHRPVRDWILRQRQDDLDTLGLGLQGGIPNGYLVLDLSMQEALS
# [3] = target: T3, human MSLN-R3-3 polypeptide (human); experiment: ELISA, coated MSLN-R3-3;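 also: chimeric antibodies in serial dilution bound to plate-coated antigen for 2 h at 37 °C, with a negative control antibody alongside, and TMB colour development stopped with HCl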
# T3 construct: also called human MSLN-R3-3 protein; hMSLN-R3-3
# Protocol: The plate was sealed with a plastic film and incubated at 4° C. overnight. The next day, the plate was washed twice with PBST, and a blocking buffer [PBS+2% (w/w) BSA] was added for blocking at room temperature for 2 h. The blocking buffer was discarded, and a chimeric antibody or negative control antibody serially diluted from 100 nM was added at 50 μL/well. After incubation at 37° C. for 2 h, the plate was washed 3 times with PBST. […] After incubation at 37° C. for 2 h, the plate was washed 5 times with PBST. A TMB substrate was added at 50 μL/well for incubation at room temperature for 5-10 min, and then a stop solution (1.0 N HCl) was added at 50 μL/well.
Binder,OD450 at 0.0001 nM [1] [OD450],OD450 at 0.001 nM [1] [OD450],OD450 at 0.01 nM [1] [OD450],OD450 at 0.1 nM [1] [OD450],OD450 at 1 nM [1] [OD450],OD450 at 10 nM [1] [OD450],OD450 at 100 nM [1] [OD450],OD450 at none (no antibody) [1] [OD450],OD450 at 0.0001 nM [2] [OD450],OD450 at 0.001 nM [2] [OD450],OD450 at 0.01 nM [2] [OD450],OD450 at 0.1 nM [2] [OD450],OD450 at 1 nM [2] [OD450],OD450 at 10 nM [2] [OD450],OD450 at 100 nM [2] [OD450],OD450 at none (no antibody) [2] [OD450],OD450 at 0.0001 nM [3] [OD450],OD450 at 0.001 nM [3] [OD450],OD450 at 0.01 nM [3] [OD450],OD450 at 0.1 nM [3] [OD450],other results
B1,0.04,0.05,0.19,0.88,2.04,2.31,2.62,0.05,0.05,0.04,0.04,0.05,0.04,0.05,0.06,0.06,0.07,0.07,0.08,0.06,OD450 at 1 nM [3]: 0.07 OD450; OD450 at 10 nM [3]: 0.08 OD450; OD450 at 100 nM [3]: 0.12 OD450; OD450 at none (no antibody) [3]: 0.07 OD450
B2,0.05,0.04,0.04,0.07,0.04,0.05,0.11,0.05,0.05,0.05,0.06,0.19,0.86,1.81,2.25,0.05,0.06,0.07,0.07,0.07,OD450 at 1 nM [3]: 0.07 OD450; OD450 at 10 nM [3]: 0.07 OD450; OD450 at 100 nM [3]: 0.11 OD450; OD450 at none (no antibody) [3]: 0.07 OD450
B3,0.03,0.04,0.06,0.05,0.04,0.05,0.06,0.04,0.05,0.06,0.17,1,1.62,2.05,2.51,0.05,0.06,0.06,0.06,0.06,OD450 at 1 nM [3]: 0.07 OD450; OD450 at 10 nM [3]: 0.07 OD450; OD450 at 100 nM [3]: 0.18 OD450; OD450 at none (no antibody) [3]: 0.07 OD450
B4,0.03,0.05,0.04,0.06,0.04,0.05,0.06,0.04,0.04,0.06,0.07,0.26,1.06,2,2.32,0.05,0.06,0.07,0.07,0.07,OD450 at 1 nM [3]: 0.06 OD450; OD450 at 10 nM [3]: 0.07 OD450; OD450 at 100 nM [3]: 0.13 OD450; OD450 at none (no antibody) [3]: 0.07 OD450
B5,0.05,0.05,0.05,0.06,0.1,0.3,1.44,0.05,0.05,0.06,0.05,0.05,0.05,0.06,0.06,0.06,0.06,0.08,0.06,0.07,OD450 at 1 nM [3]: 0.07 OD450; OD450 at 10 nM [3]: 0.08 OD450; OD450 at 100 nM [3]: 0.16 OD450; OD450 at none (no antibody) [3]: 0.08 OD450
B6,0.04,0.04,0.05,0.04,0.05,0.05,0.11,0.05,0.05,0.05,0.04,0.05,0.05,0.07,0.1,0.05,0.07,0.07,0.07,0.07,OD450 at 1 nM [3]: 0.07 OD450; OD450 at 10 nM [3]: 0.13 OD450; OD450 at 100 nM [3]: 0.72 OD450; OD450 at none (no antibody) [3]: 0.07 OD450
